Data reported in the supplement of paper PMC11316812.
± gives the standard deviation of the averaged measurements.

How the values were obtained:
MCF7 = assay: percentage of EdU-negative (G0-arrested) nuclei per well, 72 h; higher = more G0 arrest; conditions: reference: sequence is the full UniProt precursor, the tested protein was the secreted form or ectodomain
hTERT-HMEC = assay: as above; conditions: reference: sequence is the full UniProt precursor, the tested protein was the secreted form or ectodomain
[1] = protein concentration 0.03125 µM
[2] = protein concentration 0.3125 µM
[3] = protein concentration 0.010965 µM
[4] = protein concentration 0.10965 µM
[5] = protein concentration 0.0225 µM
[6] = protein concentration 0.00685714 µM
[7] = protein concentration 0.0685714 µM
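Note: secreted proteins added to cultured cells, EdU pulse at the end, nuclei found by Hoechst imaging, EdU status from nuclear versus surrounding ring intensity ratio, PBS as neutral control.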

## MARSNLPLALGLALVAFCLLALPRDARARPQERMVGELRDLSPDDPQVQKAAQAAVASYNMGSNSIYYFRDTHIIKAQSQLVAGIKYFLTMEMGSTDCRKTRVTGDHVDLTTCPLAAGAQQEKLRCDFEVLVVPWQNSSQLLKHNCVQM
MCF7; [1]
  percentage of EdU-negative: 26.7 ± 0.57%
MCF7; [2]
  percentage of EdU-negative: 25.4 ± 1.2%
hTERT-HMEC; [1]
  percentage of EdU-negative: 5.74 ± 0.7%
hTERT-HMEC; [2]
  percentage of EdU-negative: 6.46 ± 0.57%

## MGPLSAPPCTQHITWKGLLLTASLLNFWNLPITAQVTIEALPPKVSEGKDVLLLVHNLPQNLAGYIWYKGQLMDLYHYITSYVVDGQINIYGPAYTGRETVYSNASLLIQNVTREDAGSYTLHIIKRGDRTRGVTGYFTFNLYLKLPKPYITINNSKPRENKDVLAFTCEPKSENYTYIWWLNGQSLPVSPRVKRPIENRILILPSVTRNETGPYECEIRDRDGGMRSDPVTLNVLYGPDLPSIYPSFTYYRSGENLYLSCFAESNPPAEYFWTINGKFQQSGQKLSIPQITTKHRGLYTCSVRNSATGKESSKSMTVEVSAPSGIGRLPLLNPI
MCF7; [1]
  percentage of EdU-negative: 24.6 ± 2.5%
MCF7; [2]
  percentage of EdU-negative: 26.86 ± 0.057%
hTERT-HMEC; [1]
  percentage of EdU-negative: 4.75 ± 0.52%
hTERT-HMEC; [2]
  percentage of EdU-negative: 4.28 ± 0.12%

## MARSLVCLGVIILLSAFSGPGVRGGPMPKLADRKLCADQECSHPISMAVALQDYMAPDCRFLTIHRGQVVYVFSKLKGRGRLFWGGSVQGDYYGDLAARLGYFPSSIVREDQTLKPGKVDVKTDKWDFYCQ
MCF7; [3]
  percentage of EdU-negative: 26.1 ± 1.1%
MCF7; [4]
  percentage of EdU-negative: 26.2 ± 1.9%
hTERT-HMEC; [3]
  percentage of EdU-negative: 5.39 ± 0.091%
hTERT-HMEC; [4]
  percentage of EdU-negative: 5.67 ± 0.4%

## MKGWGWLALLLGALLGTAWARRSQDLHCGACRALVDELEWEIAQVDPKKTIQMGSFRINPDGSQSVVEVPYARSEAHLTELLEEICDRMKEYGEQIDPSTHRKNYVRVVGRNGESSELDLQGIRIDSDISGTLKFACESIVEEYEDELIEFFSREADNVKDKLCSKRTDLCDHALHISHDEL [Q9Y2B0]
MCF7; [5]
  percentage of EdU-negative: 23.4 ± 3.1%
MCF7; protein concentration 0.225 µM
  percentage of EdU-negative: 25.3 ± 1.3%
hTERT-HMEC; [5]
  percentage of EdU-negative: 5.14 ± 0.16%
hTERT-HMEC; protein concentration 0.225 µM
  percentage of EdU-negative: 6.74 ± 0.6%

## MALAALMIALGSLGLHTWQAQAVPILPLGLAPDTFDDTYVGCAEEMEEKAAPLLKEEMAHHALLRESWEAAQETWEDKRRGLTLPPGFKAQNGIAIMVYTNSSNTLYWELNQAVRTGGGSRELYMRHFPFKALHFYLIRALQLLRGSGGCSRGPGEVVFRGVGSLRFEPKRLGDSVRLGQFASSSLDKAVAHRFGNATLFSLTTCFGAPIQAFSVFPKEREVLIPPHEVFLVTRFSQDGAQSLVTLWSYNQTCSHFNCAYLGGEKRRGCVSAPGALGTGDLHMTKRHLQQP [Q96L15]
MCF7; protein concentration 0.016 µM
  percentage of EdU-negative: 26.5 ± 3.2%
MCF7; protein concentration 0.16 µM
  percentage of EdU-negative: 29 ± 1.5%
hTERT-HMEC; protein concentration 0.016 µM
  percentage of EdU-negative: 5.18 ± 0.43%
hTERT-HMEC; protein concentration 0.16 µM
  percentage of EdU-negative: 7.23 ± 0.71%

## MKITGGLLLLCTVVYFCSSSEAASLSPKKVDCSIYKKYPVVAIPCPITYLPVCGSDYITYGNECHLCTESLKSNGRVQFLHDGSC
MCF7; [5]
  percentage of EdU-negative: 23.6 ± 1.3%
MCF7; protein concentration 0.225 µM
  percentage of EdU-negative: 24.5 ± 2.9%
hTERT-HMEC; [5]
  percentage of EdU-negative: 5.21 ± 1.1%
hTERT-HMEC; protein concentration 0.225 µM
  percentage of EdU-negative: 6.62 ± 0.67%

## MSAAWIPALGLGVCLLLLPGPAGSEGAAPIAITCFTRGLDIRKEKADVLCPGGCPLEEFSVYGNIVYASVSSICGAAVHRGVISNSGGPVRVYSLPGRENYSSVDANGIQSQMLSRWSASFTVTKGKSSTQEATGQAVSTAHPPTGKRLKKTPEKKTGNKDCKADIAFLIDGSFNIGQRRFNLQKNFVGKVALMLGIGTEGPHVGLVQASEHPKIEFYLKNFTSAKDVLFAIKEVGFRGGNSNTGKALKHTAQKFFTVDAGVRKGIPKVVVVFIDGWPSDDIEEAGIVAREFGVNVFIVSVAKPIPEELGMVQDVTFVDKAVCRNNGFFSYHMPNWFGTTKYVKPLVQKLCTHEQMMCSKTCYNSVNIAFLIDGSSSVGDSNFRLMLEFVSNIAKTFEISDIGAKIAAVQFTYDQRTEFSFTDYSTKENVLAVIRNIRYMSGGTATGDAISFTVRNVFGPIRESPNKNFLVIVTDGQSYDDVQGPAAAAHDAGITIFSVGVAWAPLDDLKDMASKPKESHAFFTREFTGLEPIVSDVIRGICRDFLESQQ
MCF7; [6]
  percentage of EdU-negative: 23.1 ± 2.5%
MCF7; [7]
  percentage of EdU-negative: 25.4 ± 0.26%
hTERT-HMEC; [6]
  percentage of EdU-negative: 4.89 ± 0.28%
hTERT-HMEC; [7]
  percentage of EdU-negative: 7.63 ± 0.47%
